Consider one molecule from patent US11807689 (TG THERAPEUTICS, dated 2023).

The target of one assay is T1, FcγRIIIa 158F receptor (human, UniProt P08637 17-208, limits assumed).
T1 construct: in the Octet assay part of a 'Human Fc receptor panel' loaded on Anti-Penta His biosensors, so probably His-tagged; also called FcγRIIIA F158
Description: SPR, receptor amine-coupled to the chip. Here is the method: (§1) The method follows a direct binding assay methodology where the FcγRIIIa receptor is directly immobilized onto the flow cell on a sensor chip surface and samples are injected over the chip to assess binding. […] Independent duplicates of sample dilutions are injected over the chip, followed by surface regeneration between each cycle. The binding is measured in response units (RU). The kinetics of the binding reaction is determined by measuring changes in SPR due to the increase in mass in the close proximity to the biosensor chip surface. Change in the mass of the complex as a function of time is visualized as a sensorgram.
(§2) The equilibrium dissociation constants (K_D) of each sample is determined for each receptor.
On the technique in general: SPR reads the build-up and loss of mass on a sensor chip optically.

For the next assay, the target named is T2, FcγRIIIa 158V receptor (human, UniProt P08637 17-208, limits assumed).
T2 construct: in the Octet assay part of a 'Human Fc receptor panel' loaded on Anti-Penta His biosensors, so probably His-tagged; also called FcγRIIIA V158
Description: SPR, receptor amine-coupled to the chip. How it is done: as §1, §2

For assay [1], the target named is C1q Receptor in the complement system (rabbit serum complement) (rabbit). Description: cell-based or functional assay.
For assay [2], the target named is FcγIIIA Receptor on the effector cells (UniProt P08637 17-254, limits assumed). Description: cell-based or functional assay.
FcγIIIA Receptor on the effector cells, sequence (P08637 17-254 limits assumed): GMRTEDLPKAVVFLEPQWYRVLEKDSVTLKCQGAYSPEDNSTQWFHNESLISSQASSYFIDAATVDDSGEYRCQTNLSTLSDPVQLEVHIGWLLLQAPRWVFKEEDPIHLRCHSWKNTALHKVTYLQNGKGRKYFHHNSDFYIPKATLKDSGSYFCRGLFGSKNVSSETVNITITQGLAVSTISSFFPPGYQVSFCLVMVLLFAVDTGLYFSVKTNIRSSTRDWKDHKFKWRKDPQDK

T1 sequence (P08637 17-208 limits assumed): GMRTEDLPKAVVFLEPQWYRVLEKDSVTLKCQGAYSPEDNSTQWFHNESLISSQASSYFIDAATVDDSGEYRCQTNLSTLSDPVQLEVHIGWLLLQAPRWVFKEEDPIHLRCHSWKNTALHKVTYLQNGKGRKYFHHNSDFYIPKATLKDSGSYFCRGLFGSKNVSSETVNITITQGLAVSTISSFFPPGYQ
T2 sequence (P08637 17-208 F176V limits assumed): as the sequence (P08637 17-208 limits assumed) above, with F160V counted along it

B1: TG-1101 (TG Therapeutics, Inc.) (antibody, human IgG1, kappa)
heavy: not shown
light: QIVLSQSPAILSASPGEKVTMTCRASSSVSYMHWYQQKPGSSPKPWIYATSNLASGVPARFSGSGSGTSYSFTISRVEAEDAATYYCQQWTFNPPTFGGGTRLEIKRTVAAPSVFIFPPSDEQLKSGTASVVCLLNNFYPREAKVQWKVDNALQSGNSQESVTEQDSKDSTYSLSSTLTLSKADYEKHKVYACEVTHQGLSSPVTKSFNRGEC
notes: Chimeric IgG1 made in rat YB2/0 cells, low-fucose N-glycan profile; also called ublituximab; UBX
For B1, the “fold higher affinity than OCREVUS®” value with FcγRIIIa 158F receptor was around 10 fold; with FcγRIIIa 158V receptor, around 15 fold. Further, the “CDC EC50 (Jeko-1 cells, rabbit serum)” value in assay [1] was 670 ng/mL. Besides, in assay [2], the “ADCC EC50, fold lower than OCREVUS ®” value is around 25 fold.
